Data as given in patent US20230028476A1 (EVOTEC INTERNATIONAL, published 2023).
Like-named read-outs stand apart in the source and are kept apart here.

Tests used:
Experiment in all cases: cell-based or functional assay
[1] = target: human IFN receptor on HEK-Blue IFN-α/β cells (human)
human CD40 [2] = target: T1, human CD40 (human, UniProt P25942 21-277)
[3] = target: human IFN receptor on HEK-Blue IFN-α/β cells (human); remark: listed apart in the source
human CD40 [4] = target: T1, human CD40; remark: listed apart in the source

T1 sequence (P25942 21-277): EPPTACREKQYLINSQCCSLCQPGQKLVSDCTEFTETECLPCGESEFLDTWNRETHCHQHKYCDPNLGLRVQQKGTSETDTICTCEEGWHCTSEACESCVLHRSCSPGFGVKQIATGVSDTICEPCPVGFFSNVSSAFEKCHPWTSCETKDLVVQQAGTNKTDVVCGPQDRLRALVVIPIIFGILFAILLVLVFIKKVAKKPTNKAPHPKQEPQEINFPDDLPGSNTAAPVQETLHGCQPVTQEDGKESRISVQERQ

Binder	IFNβ EC50 (HEK-Blue IFN-α/β reporter cells) [1]	CD40 EC50 (HEK-Blue CD40L reporter cells) (human CD40 [2])	IFNβ EC50 (HEK-Blue IFN-α/β reporter cells) [3]	CD40 EC50 (HEK-Blue CD40L reporter cells) (human CD40 [4])	IFNε EC50 (HEK-Blue IFN-α/β reporter cells) [1]
IFA19 (antibody, human IgG2, kappa) light: DIQMTQSPSSVSASVGDRVTITCRASQGIYSWLAWYQQKPGKAPNLLIYTASTLQSGVPSRFSGSGSGTDFTLTISSLQPEDFATYYCQQANIFPLTFGGGTKVEIKRTVAAPSVFIFPPSDEQLKSGTASVVCLLNNFYPREAKVQWKVDNALQSGNSQESVTEQDSKDSTYSLSSTLTLSKADYEKHKVYACEVTHQGLSSPVTKSFNRGECSGGTSGSTSGTGSMSYNLLGFLQRSSNFQSQKLLWQLNGRLEYCLKDRMNFDIPEEIKQLQQFQKEDAALTIYEMLQNIFAIFRQDSSSTGWNETIVENLLANVYHQINHLKTVLEEKLEKEDFTRGKLMSSLHLKRYYGRILHYLKAKEYSHCAWTIVRVEILRNFYFINRLTGYLRN heavy: not shown	0.0013 µg/mL	0.11 µg/mL			
IFA10 (antibody, human IgG2, kappa) heavy: not shown light: DIQMTQSPSSVSASVGDRVTITCRASQGIYSWLAWYQQKPGKAPNLLIYTASTLQSGVPSRFSGSGSGTDFTLTISSLQPEDFATYYCQQANIFPLTFGGGTKVEIKRTVAAPSVFIFPPSDEQLKSGTASVVCLLNNFYPREAKVQWKVDNALQSGNSQESVTEQDSKDSTYSLSSTLTLSKADYEKHKVYACEVTHQGLSSPVTKSFNRGEC	0.0045 µg/mL	0.0265 µg/mL			
IFA11 (antibody, human IgG2, kappa) heavy: not shown light: DIQMTQSPSSVSASVGDRVTITCRASQGIYSWLAWYQQKPGKAPNLLIYTASTLQSGVPSRFSGSGSGTDFTLTISSLQPEDFATYYCQQANIFPLTFGGGTKVEIKRTVAAPSVFIFPPSDEQLKSGTASVVCLLNNFYPREAKVQWKVDNALQSGNSQESVTEQDSKDSTYSLSSTLTLSKADYEKHKVYACEVTHQGLSSPVTKSFNRGEC	0.00178 µg/mL	0.0428 µg/mL			
IFA8 (antibody, human IgG2, kappa) heavy: not shown light: DIQMTQSPSSVSASVGDRVTITCRASQGIYSWLAWYQQKPGKAPNLLIYTASTLQSGVPSRFSGSGSGTDFTLTISSLQPEDFATYYCQQANIFPLTFGGGTKVEIKRTVAAPSVFIFPPSDEQLKSGTASVVCLLNNFYPREAKVQWKVDNALQSGNSQESVTEQDSKDSTYSLSSTLTLSKADYEKHKVYACEVTHQGLSSPVTKSFNRGEC	0.0029 µg/mL	0.0397 µg/mL			
IFA9 (antibody, human IgG2, kappa) heavy: not shown light: DIQMTQSPSSVSASVGDRVTITCRASQGIYSWLAWYQQKPGKAPNLLIYTASTLQSGVPSRFSGSGSGTDFTLTISSLQPEDFATYYCQQANIFPLTFGGGTKVEIKRTVAAPSVFIFPPSDEQLKSGTASVVCLLNNFYPREAKVQWKVDNALQSGNSQESVTEQDSKDSTYSLSSTLTLSKADYEKHKVYACEVTHQGLSSPVTKSFNRGEC	0.0007 µg/mL	0.0426 µg/mL			
IFA12 (antibody, human IgG2, kappa) light: DIQMTQSPSSVSASVGDRVTITCRASQGIYSWLAWYQQKPGKAPNLLIYTASTLQSGVPSRFSGSGSGTDFTLTISSLQPEDFATYYCQQANIFPLTFGGGTKVEIKRTVAAPSVFIFPPSDEQLKSGTASVVCLLNNFYPREAKVQWKVDNALQSGNSQESVTEQDSKDSTYSLSSTLTLSKADYEKHKVYACEVTHQGLSSPVTKSFNRGECPAPAMSYNLLGFLQRSSNFQCQKLLWQLNGRLEYCLKDRMNFDIPEEIKQLQQFQKEDAALTIYEMLQNIFAIFRQDSSSTGWNETIVENLLANVYHQINHLKTVLEEKLEKEDFTRGKLMSSLHLKRYYGRILHYLKAKEYSHCAWTIVRVEILRNFYFINRLTGYLRN heavy: not shown	0.00364 µg/mL	0.105 µg/mL			
IFA13 (antibody, human IgG2, kappa) light: DIQMTQSPSSVSASVGDRVTITCRASQGIYSWLAWYQQKPGKAPNLLIYTASTLQSGVPSRFSGSGSGTDFTLTISSLQPEDFATYYCQQANIFPLTFGGGTKVEIKRTVAAPSVFIFPPSDEQLKSGTASVVCLLNNFYPREAKVQWKVDNALQSGNSQESVTEQDSKDSTYSLSSTLTLSKADYEKHKVYACEVTHQGLSSPVTKSFNRGECPAPAMSYNLLGFLQRSSNFQSQKLLWQLNGRLEYCLKDRMNFDIPEEIKQLQQFQKEDAALTIYEMLQNIFAIFRQDSSSTGWNETIVENLLANVYHQINHLKTVLEEKLEKEDFTRGKLMSSLHLKRYYGRILHYLKAKEYSHCAWTIVRVEILRNFYFINRLTGYLRN heavy: not shown	0.0007 µg/mL	0.192 µg/mL			
IFA1 (antibody, human IgG2, kappa) light: DIQMTQSPSSVSASVGDRVTITCRASQGIYSWLAWYQQKPGKAPNLLIYTASTLQSGVPSRFSGSGSGTDFTLTISSLQPEDFATYYCQQANIFPLTFGGGTKVEIKRTVAAPSVFIFPPSDEQLKSGTASVVCLLNNFYPREAKVQWKVDNALQSGNSQESVTEQDSKDSTYSLSSTLTLSKADYEKHKVYACEVTHQGLSSPVTKSFNRGECAEAAAKEAAAKAMSYNLLGFLQRSSNFQCQKLLWQLNGRLEYCLKDRMNFDIPEEIKQLQQFQKEDAALTIYEMLQNIFAIFRQDSSSTGWNETIVENLLANVYHQINHLKTVLEEKLEKEDFTRGKLMSSLHLKRYYGRILHYLKAKEYSHCAWTIVRVEILRNFYFINRLTGYLRN heavy: not shown	0.00164 µg/mL	0.0741 µg/mL			
IFA2 (antibody, human IgG2, kappa) light: DIQMTQSPSSVSASVGDRVTITCRASQGIYSWLAWYQQKPGKAPNLLIYTASTLQSGVPSRFSGSGSGTDFTLTISSLQPEDFATYYCQQANIFPLTFGGGTKVEIKRTVAAPSVFIFPPSDEQLKSGTASVVCLLNNFYPREAKVQWKVDNALQSGNSQESVTEQDSKDSTYSLSSTLTLSKADYEKHKVYACEVTHQGLSSPVTKSFNRGECAEAAAKEAAAKAMSYNLLGFLQRSSNFQSQKLLWQLNGRLEYCLKDRMNFDIPEEIKQLQQFQKEDAALTIYEMLQNIFAIFRQDSSSTGWNETIVENLLANVYHQINHLKTVLEEKLEKEDFTRGKLMSSLHLKRYYGRILHYLKAKEYSHCAWTIVRVEILRNFYFINRLTGYLRN heavy: not shown	0.00014 µg/mL	0.111 µg/mL			

Next, values leading:

IFNβ EC50 (HEK-Blue IFN-α/β reporter cells) [1]	CD40 EC50 (HEK-Blue CD40L reporter cells) (human CD40 [2])	IFNβ EC50 (HEK-Blue IFN-α/β reporter cells) [3]	CD40 EC50 (HEK-Blue CD40L reporter cells) (human CD40 [4])	IFNε EC50 (HEK-Blue IFN-α/β reporter cells) [1]	Binder
0.00234 µg/mL	0.182 µg/mL				IFA20 (antibody, human IgG2, kappa) light: DIQMTQSPSSVSASVGDRVTITCRASQGIYSWLAWYQQKPGKAPNLLIYTASTLQSGVPSRFSGSGSGTDFTLTISSLQPEDFATYYCQQANIFPLTFGGGTKVEIKRTVAAPSVFIFPPSDEQLKSGTASVVCLLNNFYPREAKVQWKVDNALQSGNSQESVTEQDSKDSTYSLSSTLTLSKADYEKHKVYACEVTHQGLSSPVTKSFNRGECAEAAAKEAAAKAAEAAAKEAAAKAMSYNLLGFLQRSSNFQSQKLLWQLNGRLEYCLKDRMNFDIPEEIKQLQQFQKEDAALTIYEMLQNIFAIFRQDSSSTGWNETIVENLLANVYHQINHLKTVLEEKLEKEDFTRGKLMSSLHLKRYYGRILHYLKAKEYSHCAWTIVRVEILRNFYFINRLTGYLRN heavy: not shown
		0.0103 µg/mL	0.191 µg/mL		IFA106 (antibody, human IgG2, kappa) heavy: QVQLVESGGGVVQPGKSLRLSCAASGFTFSSNGIHWVRQAPGKGLEWVAVIWSDGSNKFYADSVKGRFTISRDNSKNTLYLQMNSLRAEDTAVYYCARASGSGSYYNFFDYWGQGTLVTVSSASTKGPSVFPLAPCSRSTSESTAALGCLVKDYFPEPVTVSWNSGALTSGVHTFPAVLQSSGLYSLSSVVTVPSSNFGTQTYTCNVDHKPSNTKVDKTVERKCCVECPPCPAPPVAGPSVFLFPPKPKDTLMISRTPEVTCVVVDVSHEDPEVQFNWYVDGVEVHNAKTKPREEQFNSTFRVVSVLTVVHQDWLNGKEYKCKVSNKGLPAPIEKTISKTKGQPREPQVYTLPPSREEMTKNQVSLTCLVKGFYPSDIAVEWESNGQPENNYKTTPPMLDSDGSFFLYSKLTVDKSRWQQGNVFSCSVMHEALHNHYTQKSLSLSPGPAPASYNLLGFLQRSSNFQCQKLLWQLNGRLEYCLKDRMNFDIPEEIKQLQQFQKEDAALTIYEMLQNIFAIFRQDSSSTGWNETIVENLLANVYHQINHLKTVLEEKLEKEDFTRGKLMSSLHLKRYYGRILHYLKAKEYSHCAWTIVRVEILRNFYFINRLTGYLRN light: not shown
		0.00203 µg/mL	0.142 µg/mL		IFA107 (antibody, human IgG2, kappa) heavy: QVQLVESGGGVVQPGKSLRLSCAASGFTFSSNGIHWVRQAPGKGLEWVAVIWSDGSNKFYADSVKGRFTISRDNSKNTLYLQMNSLRAEDTAVYYCARASGSGSYYNFFDYWGQGTLVTVSSASTKGPSVFPLAPCSRSTSESTAALGCLVKDYFPEPVTVSWNSGALTSGVHTFPAVLQSSGLYSLSSVVTVPSSNFGTQTYTCNVDHKPSNTKVDKTVERKCCVECPPCPAPPVAGPSVFLFPPKPKDTLMISRTPEVTCVVVDVSHEDPEVQFNWYVDGVEVHNAKTKPREEQFNSTFRVVSVLTVVHQDWLNGKEYKCKVSNKGLPAPIEKTISKTKGQPREPQVYTLPPSREEMTKNQVSLTCLVKGFYPSDIAVEWESNGQPENNYKTTPPMLDSDGSFFLYSKLTVDKSRWQQGNVFSCSVMHEALHNHYTQKSLSLSPGPAPASYNLLGFLQRSSNFQSQKLLWQLNGRLEYCLKDRMNFDIPEEIKQLQQFQKEDAALTIYEMLQNIFAIFRQDSSSTGWNETIVENLLANVYHQINHLKTVLEEKLEKEDFTRGKLMSSLHLKRYYGRILHYLKAKEYSHCAWTIVRVEILRNFYFINRLTGYLRN light: not shown
	0.0658 µg/mL			0.0782 µg/mL	IFA49 (antibody, human IgG2, kappa) heavy: not shown light: DIQMTQSPSSVSASVGDRVTITCRASQGIYSWLAWYQQKPGKAPNLLIYTASTLQSGVPSRFSGSGSGTDFTLTISSLQPEDFATYYCQQANIFPLTFGGGTKVEIKRTVAAPSVFIFPPSDEQLKSGTASVVCLLNNFYPREAKVQWKVDNALQSGNSQESVTEQDSKDSTYSLSSTLTLSKADYEKHKVYACEVTHQGLSSPVTKSFNRGEC
